Laboratory results taken from article PMC4778124, “A continuous sirtuin activity assay without any coupling to enzymatic or chemical reactions” (Scientific Reports, 2016).
Primed or numbered codes have the meaning given here. *: point of attachment. thiosuccinyl = lysine reacted with methyl 3-[(methylthio)thiocarbonyl]propanoate, then 1 M NaOH (thioxo peptide), O=C(O)CCC(=S)*; thioacetyl = lysine reacted with ethyl dithioacetate (thioxo peptide), CC(=S)*; Bz′ = not defined here

Target: T1, human sirtuin 2 (human, UniProt Q8IXJ6 1-389)
T1 construct: sirtuin 2 (Sirt2), human; also called Sirt2
T1 sequence (looked up): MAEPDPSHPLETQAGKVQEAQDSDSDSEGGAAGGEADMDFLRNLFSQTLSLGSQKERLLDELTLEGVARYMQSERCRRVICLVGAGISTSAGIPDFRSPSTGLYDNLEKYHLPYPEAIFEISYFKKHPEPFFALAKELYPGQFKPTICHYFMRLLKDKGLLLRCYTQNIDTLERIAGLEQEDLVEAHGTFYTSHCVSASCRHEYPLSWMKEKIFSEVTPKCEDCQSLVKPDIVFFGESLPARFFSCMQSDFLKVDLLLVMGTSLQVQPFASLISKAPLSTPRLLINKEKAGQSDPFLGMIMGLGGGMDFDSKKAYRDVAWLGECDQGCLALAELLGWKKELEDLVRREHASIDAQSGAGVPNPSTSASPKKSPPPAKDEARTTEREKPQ
Assay: enzyme inhibition kinetics (continuous fluorescence activity assay); 96-well MTP fluorescence reader; kcat and KM for substrate 3 recorded at varying inhibitor concentrations (0.01-600 μM); 500 μM NAD+; 20 mM TRIS/HCl pH 7.8, 150 mM NaCl, 5 mM MgCl2; 37 °C; Ki from competitive and non-competitive inhibition models
Conditions: both partners purified

Q: {Bz′}-GVLK(thioacetyl)EYGV-NH2 (source: synthetic peptide) [thioxo peptide 10 based on the CPS1 peptide] was tested. Which Ki did it give?
A: 0.3 ± 0.1 µM

Q: Which Ki does the source give for {Bz′}-GVLK(thiosuccinyl)EYGV-NH2 (source: synthetic peptide) [thioxo peptide 11 based on the CPS1 peptide] here?
A: 50 ± 9.9 µM
